PMC6066285 (Cell reports, 2018)

Molecular target: the molecule itself
Test: SEC

B1: recombinant FOG-3 (sizing column, Figure S2A) (domain or fragment)
chain: MYTEVRELVNFVCRYLFGHIPRRPVGIFGAELGNYLVSHFSSTWDVHHPKNGEMKRMINTTTSLCFASSAEEAGVPPSDVLRLLPTNMIIFANPGHVFVRLSENGIETPIWIGDVNCDENYQSVPEYVVRTAAIRAE
- stoichiometry N: 2
